Reference: CN1542019A (CHINA ANTIBODY PHARMACY CO LTD, dated 2004)

T1: CD22抗原 (CD22 on Raji human lymphoma cells) (human, UniProt P20273 20-847)
T1 construct: whole, on cells; The assays are on Raji cells; also called Raji人淋巴瘤细胞; Raji细胞
T1 sequence (looked up): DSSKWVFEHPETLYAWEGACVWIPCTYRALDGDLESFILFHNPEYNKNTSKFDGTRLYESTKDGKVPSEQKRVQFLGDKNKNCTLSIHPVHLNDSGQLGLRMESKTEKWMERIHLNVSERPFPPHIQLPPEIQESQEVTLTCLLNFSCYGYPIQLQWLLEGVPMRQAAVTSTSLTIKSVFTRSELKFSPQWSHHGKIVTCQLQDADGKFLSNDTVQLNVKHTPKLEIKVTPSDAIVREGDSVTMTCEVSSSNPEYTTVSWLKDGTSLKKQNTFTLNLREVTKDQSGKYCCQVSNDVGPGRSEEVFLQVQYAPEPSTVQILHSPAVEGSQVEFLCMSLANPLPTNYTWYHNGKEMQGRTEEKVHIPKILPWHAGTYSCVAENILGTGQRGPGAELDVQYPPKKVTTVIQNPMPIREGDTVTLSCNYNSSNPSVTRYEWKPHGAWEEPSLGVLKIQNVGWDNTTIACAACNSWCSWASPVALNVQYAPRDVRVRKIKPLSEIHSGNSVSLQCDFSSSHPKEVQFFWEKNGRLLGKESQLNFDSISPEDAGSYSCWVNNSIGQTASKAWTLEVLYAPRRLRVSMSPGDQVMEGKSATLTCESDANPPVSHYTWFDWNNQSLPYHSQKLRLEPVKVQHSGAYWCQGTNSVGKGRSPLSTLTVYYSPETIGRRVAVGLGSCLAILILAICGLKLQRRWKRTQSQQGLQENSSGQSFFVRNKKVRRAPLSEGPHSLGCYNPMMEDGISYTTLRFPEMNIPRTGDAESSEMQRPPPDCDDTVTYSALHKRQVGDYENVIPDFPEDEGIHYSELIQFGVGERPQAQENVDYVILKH


Tests used:
[1] = target: T1, CD22抗原 (CD22 on Raji human lymphoma …); test: flow cytometry on Raji human lymphoma cells, four purified batches of different production and storage time
[2] = target: T1, CD22抗原 (CD22 on Raji human lymphoma …); test: competitive flow cytometry on Raji cells; unlabelled murine parent antibody as competitor of its FITC conjugate

binding result [1] | binding result [2] | Binder
binds | – | 嵌合抗体SM03 (chimeric anti-CD22 antibody SM03, human IgG1/human Kappa, variable regions modified at the N- and C-termini) (antibody, V domains shown, Expressed in SP2/0 cells, purified on Protein A; also called 嵌合单克隆抗体SM03; SM03试产第一批抗体) VH: QVQLQESGGGLVKPGGSLKLSCAASGFAFSIYDMSWVRQWPEKRLEWVAYISSGGGTTYYPDTVKGRFTISRDNAKNTLYLQMSSLKSEDTAMYYCARHSGYGSSYGVLFAYWGQGTLVTVSS VL: DIQLTQTTSSLSASLGDRVTISCRASQDISNYLNWYQQKPDGTVKLLIYYTSILHSGVPSRFSGSGSGTDYSLTISNLEQEDFATYFCQQGNTLPWTFGGGTKLEIKR
– | binds | 嵌合抗体SM03的鼠源母抗体 (murine parent antibody of SM03) (antibody, V domains shown, Whole mouse hybridoma antibody (mouse IgG heavy chain, kappa light chain by the cloning primers); also called 鼠源抗体; FITC-鼠源母抗体偶联物) VH: EVQLVESGGGLVKPGGSLKLSCAASGFAFSIYDMSWVRQWPEKRLEWVAYISSGGGTTYYPDTVKGRFTISRDNAKNTLYLQMSSLKSEDTAMYYCARHSGYGSSYGVLFAYWGQGTLVTVSA VL: DIQMTQTTSSLSASLGDRVTISCRASQDISNYLNWYQQKPDGTVKLLIYYTSILHSGVPSRFSGSGSGTDYSLTISNLEQEDFATYFCQQGNTLPWTFGGGTKLEIK
